The results in this text go back to US20190151401A1 (UNIVERSITY OF BRITISH COLUMBIA, published 2019).

Test [1] concerns the target T1, cyclo(CGQKLVG) conjugated to BSA (also: conjugated to BSA).
T1 construct: BSA carrier is not written as a chain
T1 peptide: cyclo(CGQKLVG)
The experiment in a line: ELISA and SPR on peptide-BSA conjugates. In general terms: An ELISA detects its analyte on a solid surface through an enzyme-linked reagent.

The target in test [2] is T2, cyclo(CGHHQKG) conjugated to BSA (also: conjugated to BSA).
T2 construct: HHQK are A-beta residues 13-16; C and G residues are linker; BSA carrier is not written as a chain; also called Cyclo-BSA
T2 peptide: cyclo(CGHHQKG)
The experiment in a line: ELISA and SPR on peptide-BSA conjugates.

Test [3] concerns the target T3, A-beta42 oligomers (synthetic, commercially prepared, SynAging SAS) (human). The experiment in a line: cell-based or functional assay.
Test [4] addresses T4, cyclo(CGHDSGG) conjugated to BSA (also: conjugated to BSA).
T4 construct: BSA carrier is not written as a chain
T4 peptide: cyclo(CGHDSGG)
The experiment in a line: ELISA and SPR on peptide-BSA conjugates.

The target of test [5] is T3, A-beta42 oligomers (synthetic, …). The test is described as follows: ProteOn biosensor, antibody captured or amine-coupled on GLM chip, AbO 12.3 nM to 1 uM; approximate kinetic value.
The target in test [6] is T2, cyclo(CGHHQKG) conjugated to BSA. The test is described as follows: ProteOn biosensor, antibody amine-coupled on GLH chip, cyclo-BSA 111 pM to 9 nM. Here is the method:
Cyclo-BSA 3-fold dilutions were used from 9 nM to 111 pM. Assay buffer was PBS-E+0.05% Tween+10 mg/ml BSA.

T3 sequence (peptide, as listed by the source): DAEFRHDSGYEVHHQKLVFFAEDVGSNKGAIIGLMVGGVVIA

B1: antibody 305-62 (IgG1, kappa), raised against cyclo(CGQKLVG) (antibody, V domains shown)
VH: QVTLKESGPGILKPSQTLSLTCSFSGFSLSTSGMGVGWIRQPSGKGLEWLAHIWWDDDKYYNPSLKSQLTISKDTSRNQVFLKITSVDTADTATYYCARSITTVVATPFDYWGQGTTLTVSS
VL: DIVMTQSQKFMSTSVGDRVSITCKASQNVRSAVAWYQQKPGQSPKALIYLASNRHTGVPDRFTGSGSGTDFTLTISNVHSEDLTDYFCLQHWNSPFTFGGGTKLEIKR
notes: Mouse IgG1/kappa; Entries as printed include the leader peptide and a few constant-region residues
Take B1: the binding result in test [1] is “binds”.

B2: antibody 301-11 (IgG3, kappa), raised against cyclo(CGHHQKG) (antibody, V domains shown)
VH: EVQLVESGGGLVKPGGSLKLSCAASGFTFSDYYMYWVRQTPEKRLEWVATISDGGSYTSYPDSVKGRFTISRDNAKNNLYLQMSSLRSEDTAMYYCARDYYGSSSYTSGFAYWGQGTLVTVSA
VL: DIVMSQSPSSLAVSTGEKVTMSCKSSQSLLNSRTRKNYLAWYQQKPGQSPKLLIYWASTRESGVPDRFTGSGSGTDFTLTISSVQAEDLAVYYCKQSYNLYTFGGGTKLEIK
notes: Mouse IgG3/kappa; Entries as printed include the leader peptide
Consider B2, for which, in test [2], the binding result is “binds”.

B3: antibody 303-25, raised against cyclo(CGHDSGG) (antibody, V domains shown)
VH: QVQLQQPGAELVRPGASVKLSCKASGYTFTSYWMNWVKQRPGQGLEWIGMIDPSDSQTHYNQMFKDKATLTVDKSSSTAYLQLSSLTSEDSAVYYCSRGGYWGQGTTLTVSS
VL: DIQMTQSPSSLSASLGGKVTITCKASQDINNYIAWYQHKPGKGPRQLIYYTSTLQPGIPSRFSGSGSGRDYSFTISDLEPEDIATYYCLQYDNLWTFGGGTKLEIK
notes: Mouse, kappa; Entries as printed include the leader peptide
Turning to B3, the “remaining cell viability at a molar ratio of 1:2 (AβO:AB1)” value in test [3] is 88.8 % of control. In addition, the binding result in test [4] is given as “binds”.

B4: antibody 305-61 (IgG3, kappa), raised against cyclo(CGQKLVG) (antibody, V domains shown)
VH: QVQLQQSGAELVRPGASVTLSCKASGYTFTDYEMHWVKQTPVHGLEWIGAIDPETGDTAYNQEFKGKATLTADKSSSTAYMELRSLTSEDSAVYYCTSPIYYDYDWFAYWGHGTLVTVSA
VL: DIVMSQSPSSLAVSAGEKVTMSCKSSQSLLNNRTRKNYLAWYQQKPGQSPKLLIYWASTRESGVPDRFTGSGSGTDFTLTISSVQAEDLAVYYCKQSYNLRTFGGGTKLEIKR
notes: Mouse IgG3/kappa; Entries as printed include the leader peptide and a few constant-region residues; also called 7E9.1
B4: the “remaining cell viability at a molar ratio of 1:2 (AβO:AB1)” value in test [3] is 80.1 % of control. Besides, the binding result in test [1] is recorded as “binds”.

B5: antibody 301-17 (hybridoma-purified, IgG3, kappa), raised against cyclo(CGHHQKG) (antibody, V domains shown)
VH: QVQLQQPGAELVKPGASVKMSCKASGYSFTSYWINWVKQRPGQGLEWIGDVHPGRGVSTYNAKFKSKATLTLDTSSSTAYMQLSSLTSEDSAVYYCSRSHGNTYWFFDVWGAGTTVTVSS
VL: DVLMTQTPLSLPVSLGDQASISCRSSQSIVHSNGNTYLEWYLQKPGQSPKLLIYKVSNRFSGVPDRFSGSGSGTDFTLKISRVEAEDLGVYYCFQGSHVPFTFGSGTKLEIKR
notes: Mouse IgG3/kappa
As to B5, in test [5], the Kd – broadly, the equilibrium constant for the complex coming apart – is roughly 26.9 nM.

B6: recombinant 301-17 IgG2a (antibody, V domains shown)
VH: QVQLQQPGAELVKPGASVKMSCKASGYSFTSYWINWVKQRPGQGLEWIGDVHPGRGVSTYNAKFKSKATLTLDTSSSTAYMQLSSLTSEDSAVYYCSRSHGNTYWFFDVWGAGTTVTVSS
VL: DVLMTQTPLSLPVSLGDQASISCRSSQSIVHSNGNTYLEWYLQKPGQSPKLLIYKVSNRFSGVPDRFSGSGSGTDFTLKISRVEAEDLGVYYCFQGSHVPFTFGSGTKLEIKR
For B6, the Kd was roughly 0.017 nM in test [6] and 16.2 to 19.5 nM in test [5].

B7: antibody 305-59 (IgG1, kappa), raised against cyclo(CGQKLVG) (antibody, V domains shown)
VH: EVQLQQSGAELVKPGASVKLSCTVSGFNIKDTYVHWVKQRPEQGLEWIGRIAPASGNTKYAPNFQDKATITADTSSNTAYLQLNSLTSEDTAVYYCARHVYWGQGTLVTVSA
VL: SIVMTQTPKFLLVSAGDRVTITCKASQSVSNDVVWYQQKPGQSPKLLIYYASNRYTGVPDRFTGSGYGTDFTFTISTVQAEDLAVYFCQQDYISPYTFGGGTKLEIK
notes: Mouse IgG1/kappa; Entries as printed include the leader peptide; also called 59 (5G1)
Consider B7, for which, in test [1], the binding result is recorded as “binds”.
